Entries after “also recorded” stand apart in the source; their conditions may differ. Marks after values point to notes of the source that are not given here.
Tests used:
[1] = system: antibiotic resistant S. aureus; test: Assay for antibacterial activity (in vitro killing, viable count); assay type: cell-based, Staphylococcus aureus strain 2141; conditions: for CFU of bacteria, antibiotic resistant S. aureus: 4 μM protein, approx. 1 × 10^6 CFU, PBS-Tw (pH 6.0), 3 h at 37° C., mean ± SD of 3–5 experiments
Description: (§1) Listeria monocytogenes strain EGD. Klebsiella pneumoniae (43816), and Escherichia coli O54 were purchased from the American Type Culture Collection (Rockville, Md.). Antibiotic resistant S. aureus, K. pneumoniae and E. coli were cultured overnight in nutrient broth (Oxoid, Basingstoke, UK) at 37° C., diluted in tryptase soya broth (TSB, Oxoid) and cultured for an additional 2 h in a shaking waterbath at 37° C. L. monocytogenes was cultured overnight in brain heart infusion broth (BHI, Oxoid) at 37° C. diluted and cultured for an additional 2 h in a shaking waterbath at 37° C.
(§2) In short, bacteria were washed with phosphate-buffered saline (PBS) (pH 7.4) and diluted to a concentration of approximately 2×10^6 CFU/ml of phosphate-buffered saline (pH 6.0) supplemented with 0.1% (v/v) Tween-20 (hereafter designated as PBS-Tw). […] At various time intervals (range 0–4 h) after incubation at 37° C. the number of viable bacteria was determined microbiologically. As negative controls, bovine serum albumin (BSA; Sigma) or no peptide were included.

[2] = system: L. monocytogenes; test: Assay for membrane permeability (propidium iodide, FACS); assay type: cell-based, Listeria monocytogenes; conditions: period of analysis 4 h after addition of the protein
Description: (§3) Changes in the membrane permeability of bacteria upon exposure to hLF, hLF^−3N and related peptides were monitored after incubation with propidium iodide (PI; Sigma), using FACS analysis (12, 20). Stock solutions of PI (1 mg/ml of deionized water) were prepared. Approximately 2×10^6 bacteria/ml of PBS-Tw were incubated for various intervals at 37° C., washed, incubated for 5 min with 1 μg of PI/ml (final concentration) and then analyzed with a FACScan (Becton & Dickinson, CA) equipped with a argon-laser at 488 nm. The photomultiplier voltages were routinely set at 500 V for PI fluorescence intensity in the second channel. Data acquisition and analysis were controlled using the Lysis II software.

[3] = system: L. monocytogenes; test: Assay for non-specific esterase activity (SFDA, FACS); assay type: cell-based, Listeria monocytogenes; conditions: within 1–2 hours after addition; FIG. 4: 4 μM
Description: (§4) As an indication of intracellular effects of hLF, hLF^−3N and related peptides (e.g., hLF (1–11) and hLF(21–31) in bacteria, the non-specific esterase activity of bacteria upon exposure to these antimicrobial proteins/peptides was assessed using 5-sulfofluorescein diacetate (SFDA; Molecular Probes, Leiden, The Netherlands) and FACS analysis (21). For these experiments, a stock solution of SFDA (1 mg/ml of ethanol) was prepared. Approximately 2×10^6 CFU of bacteria/ml of PBS-Tw were incubated with various concentrations of hLF, hLF^−3N and hLF related peptides for various intervals at 37° C., washed, incubated with 100 μM of SFDA/ml (final concentration ethanol 20% v/v) for 20 min at room temperature in the dark and then analyzed with a FACScan using the photomultiplier voltage of the first channel set at 700 V.

[4] = system: E. coli; test: Assay for membrane permeability (propidium iodide, FACS); assay type: cell-based, Escherichia coli; conditions: period of analysis 4 h after addition of the protein
Description: as §3

[5] = system: E. coli; test: Assay for non-specific esterase activity (SFDA, FACS); assay type: cell-based, Escherichia coli; conditions: within 1–2 hours after addition
Description: as §4

[6] = system: K. pneumoniae; test: Assay for antibacterial activity (in vitro killing, viable count); assay type: cell-based, Klebsiella pneumoniae (43816)
Description: as §1, §2

[7] = system: L. monocytogenes; test: as above; assay type: cell-based, Listeria monocytogenes strain EGD; conditions: for CFU of bacteria, L. monocytogenes: 4 μM protein, approx. 1 × 10^6 CFU, PBS-Tw (pH 6.0), 3 h at 37° C., mean ± SD of 3–5 experiments
Description: as §1, §2

[8] = system: bacteria; test: Assay for non-specific esterase activity (SFDA, FACS), bacteria in general; assay type: cell-based
[9] = system: antibiotic resistant S. aureus; test: Experimental thigh muscle infection; assay type: in vivo, mice; conditions: FIG. 5
Description: In short, specific pathogen-free, male. Swiss mice weighing 20–25 g (Broekman Institute, Someren, The Netherlands) were anaesthetized with a single intraperitoneal injection of 0.1 ml of saline containing 1 mg fluanisone and 0.03 mg fentanyl citrate (Hypnorm, Janssen Pharmaceutics, Tilburg, The Netherlands). Preceding scintigraphy, a subcutaneous injection of 0.1 ml, containing 0.2 mg diazepam (Valium, Hoffmann-La Roche, Mijdrecht, The Netherlands) was administered. […] As a control, mice were injected with 0.2 ml of saline containing BSA or saline without any peptide. […] Next, the infected thigh muscles were removed and, after weighing, homogenized in 4 ml of PBS. Appropriate dilutions of the homogenates were applied onto diagnostic sensitivity test plates (Oxoid), and the number of colonies counted after an overnight culture at 37° C. Results are expressed as the number of CFUs per gram of infected tissue.

[10] = system: E. coli; test: Assay for antibacterial activity (in vitro killing, viable count); assay type: cell-based, Escherichia coli O54; conditions: for CFU of bacteria, E. coli: 4 μM protein, approx. 1 × 10^6 CFU, PBS-Tw (pH 6.0), 3 h at 37° C., mean ± SD of 3–5 experiments
Description: as §1, §2

[11] = system: the various bacteria (L. monocytogenes, antibiotic resistant S. aureus, K. pneumoniae, E. coli); test: Assay for antibacterial activity, statements on the various bacteria together; assay type: cell-based
Description: as §1, §2

[12] = Pharmacology of 99mTc-labeled hLF and peptides by scintigraphy in infected mice; conditions: mouse, in vivo
Description: Lactoferrins and related peptides were labeled with ^99mTechnetium (^99mTc) as described (22, 23). Briefly, 10 μl of a peptide solution (1 mg/ml of HAc) was added to 2 μl of an aseptic solution of 0.5 mg of stannous pyrophosphate/ml (Dept. of Clinical Pharmacy and Toxicology. Leiden University Medical Center (LUMC). Leiden. The Netherlands). Immediately thereafter, 4 μl of a solution of 10 mg of KBH4 (crystalline. Sigma) per ml of 0.1 M NaOH was added. After addition of 0.1 ml of ^99mTc-sodium pertechnetate solution (200 MBq/ml. Mallinckrodt Medical BV, Petten, The Netherlands), the mixture was gently stirred at ambient temperature for 30 min and then was ready for use. Quality control of the labeling was performed by RP-HPLC analysis using a Sep-Pak C18 cartridge (Waters, Milford, Mass.) in 20 ml of 0.01 M HAc. After rinsing with 20 ml of 0.01 M HAc, proteins and peptides were eluted with 2 ml of methanol (Sigma). […]
On the scintigrams, anatomically adjusted regions of interest (ROI) were drawn over the various organs and both thighs providing data about clearance of ^99mTc-peptides and accumulation at the site of infection. […] The amount of radioactivity in the heart was corrected for decay and expressed as a percentage of injected dose (% ID).

[13] = system: bacteria; test: Assay for membrane permeability (propidium iodide, FACS), bacteria in general; assay type: cell-based
Description: as §3

B1: hLF: Natural human lactoferrin (Mr 77,000) purified from the fresh milk of a single donor, N-terminus intact; SEQ ID NO:1 (protein, listed as Homo sapiens)
chain: GRRRRSVQWCAVSQPEATKCFQWQRNMRKVRGPPVSCIKRDSPIQCIQAIAENRADAVTLDGGFIYEAGLAPYKLRPVAAEVYGTERQPRTHYYAVAVVKKGGSFQLNELQGLKSCHTGLRRTAGWNVPIGTLRPFLNWTGPPEPIEAAVARFFSASCVPGADKGQFPNLCRLCAGTGENKCAFSSQEPYFSYSGAFKCLRDGAGDVAFIRESTVFEDLSDEAERDEYELLCPDNTRKPVDKFKDCHLARVPSHAVVARSVNGKEDAIWNLLRQAQEKFGKDKSPKFQLFGSPSGQKDLLFKDSAIGFSRVPPRIDSGLYLGSGYFTAIQNLRKSEEEVAARRARVVWCAVGEQELRKCNQWSGLSEGSVTCSSASTTEDCIALVLKGEADAMSLDGGYVYTAGKCGLVPVLAENYKSQQSSDPDPNCVDRPVEGYLAVAVVRRSDTSLTWNSVKGKKSCHTAVDRTAGWNIPMGLLFNQTGSCKFDEYFSQSCAPGSDPRSNLCALCIGDEQGENKCVPNSNERYYGYTGAFRCLAENAGDVAFVKDVTVLQNTDGNNNEAWAKDLKLADFALLCLDGKRKPVTEARSCHLAMAPNHAVVSRMDKVERLKQVLLHQQAKFGRNGSDCPDKFCLFQSETKNLLFNDNTECLARLHGKTTYEKYLGPQYVAGITNLKKCSTSPLLEACEFLRK
CFU of bacteria, antibiotic resistant S. aureus [1]: 6.9 ± 2.1 × 10^4*^,** CFU
CFU of bacteria, antibiotic resistant S. aureus ([1]; listed as hLF^3N): 5.6 ± 1.9 × 10^5 CFU
Killing of antibiotic resistant S. aureus by the protein (in words) ([1]; dose-dependent, FIGS. 1A–1E): killed
Change of the membrane permeability of L. monocytogenes [2]: not followed by a significant change
Intracellular non-specific esterase activity of L. monocytogenes [3]: inhibited
Change of the membrane permeability of E. coli [4]: not followed by a significant change
Intracellular non-specific esterase activity of E. coli [5]: not
CFU of bacteria, K. pneumoniae ([6]; 4 μM protein, approx. 1 × 10^6 CFU, PBS-Tw (pH 6.0), 3 h at 37° C., mean ± SD of 3–5 experiments, listed as hLF^3N): 6.8 ± 1.5 × 10^5 CFU
Killing of K. pneumoniae by the protein (in words) ([6]; dose-dependent, FIGS. 1A–1E): killed
CFU of bacteria, L. monocytogenes [7]: 2.4 ± 0.9 × 10^4*^,** CFU
CFU of bacteria, L. monocytogenes ([7]; listed as hLF^3N): 4.8 ± 2.4 × 10^5 CFU
Killing of L. monocytogenes by the protein (in words) ([7]; dose-dependent, FIGS. 1A–1E): killed
Non-specific esterase activity of the bacteria (conclusions) [8]: inhibited
Effect on the non-specific esterase activity at 4° C. ([8]; 4° C.): no affect; also recorded: not able
Amount at which maximum effects on viable bacteria were seen ([9]; mice infected with antibiotic resistant S. aureus, 24 h after injection): 1 nmol
Number of viable bacteria in mice infected with antibiotic resistant S. aureus ([9]; within 24 h after intravenous injection, thigh muscle): reduced in a dose-dependent fashion
CFU of bacteria, E. coli [10]: 3.0 ± 0.3 × 10^6 CFU
CFU of bacteria, E. coli ([10]; listed as hLF^3N): 9.5 ± 8.2 × 10^5 CFU
Killing of E. coli by the protein (in words) ([10]; Table 1, even at concentrations up to 12 μM): not killed
Speed of killing these bacteria, natural hLF compared with hLF^−3N ([11]; 4 μM, FIGS. 1C–1E, p<0.05): faster (p<0.05) than hLF^−3N
Effect on the number of viable bacteria at 4° C. ([11]; 4° C.): no affect; also recorded: not able to kill bacteria
Potency in killing, natural hLF compared with hLF^−3N ([11]; dose-dependent killing, FIGS. 1A–1B, p<0.05): more potent (p<0.05) than hLF^−3N
Amount at the site of infection, hLF compared with hLF^−3N [12]: did not differ
mean t1/2 of removal from the circulation [12]: approximately 19 min
Membrane permeability of the bacteria, proteins (conclusions) [13]: without affecting

Source: US7060677B1, “Antimicrobial activity of the first cationic cluster of human lactoferrin” (priority 1999, dated 2006)
